Measured values published in IntAct's records for PubMed 12626503.

B1: Rho guanine nucleotide exchange factor 7 (Mus musculus), Q9ES28-2 (parent)
chain: MNSAEQTVTWLITLGVLESPKKTISDPEVFLQASLKDGVVLCRLLERLLPGTIEKVYPEPRNESECLSNIREFLRACGASLRLETFDANDLYQGQNFNKVLSSLVTLNKVTADIGLGSDSVCARPSSHRIKSFDSLGSQSSHSRTSKLLQSQYRSLDMTDNTNSQLVVRAKFNFQQTNEDELSFSKGDVIHVTRVEEGGWWEGTHNGRTGWFPSNYVREIKPSEKPVSPKSGTLKSPPKGFDTTAINKSYYNVVLQNILETEHEYSKELQSVLSTYLRPLQTSDKLSSANTSYLMGNLEEISSFQQVLVQSLEECTKSPEAQQRVGGCFLSLMPQMRTLYLAYCANHPSAVSVLTEHSEDLGEFMETKGASSPGILVLTTGLSKPFMRLDKYPTLLKELERHMEDYHPDRQDIQKSMTAFKNLSAQCQEVRKRKELELQILTEPIRSWEGDDIKTLGSVTYMSQVTIQCAGSEEKNERYLLLFPNLLLMLSASPRMSGFIYQGKLPTTGMTITKLEDSENHRNAFEISGSMIERILVSCTSQQDLHEWVEHLQKQTKVTSVSNPTIKPHSVPSHTLPSHPLTPSSKHADSKPVALTPAYHTLPHPSHHGTPHTTISWGPLEPPKTPKPWSLSCLRPAPPLRPSAALCYKEDLSKSPKTMKKLLPKRKPERKPSDEEFAVRKSTAALEEDAQILKVIEAYCTSAKTRQTLNSSSRKESAPQVLLPEEEKIIVEETKSNGQTVIEEKSLVDTVYALKDEVQELRQDNKKMKKSLEEEQRARKDLEKLVRKVLKNMNDPAWDETNL
B2: Rho guanine nucleotide exchange factor 7 (Mus musculus), Q9ES28-2 (parent)
chain: B1 chain
partner: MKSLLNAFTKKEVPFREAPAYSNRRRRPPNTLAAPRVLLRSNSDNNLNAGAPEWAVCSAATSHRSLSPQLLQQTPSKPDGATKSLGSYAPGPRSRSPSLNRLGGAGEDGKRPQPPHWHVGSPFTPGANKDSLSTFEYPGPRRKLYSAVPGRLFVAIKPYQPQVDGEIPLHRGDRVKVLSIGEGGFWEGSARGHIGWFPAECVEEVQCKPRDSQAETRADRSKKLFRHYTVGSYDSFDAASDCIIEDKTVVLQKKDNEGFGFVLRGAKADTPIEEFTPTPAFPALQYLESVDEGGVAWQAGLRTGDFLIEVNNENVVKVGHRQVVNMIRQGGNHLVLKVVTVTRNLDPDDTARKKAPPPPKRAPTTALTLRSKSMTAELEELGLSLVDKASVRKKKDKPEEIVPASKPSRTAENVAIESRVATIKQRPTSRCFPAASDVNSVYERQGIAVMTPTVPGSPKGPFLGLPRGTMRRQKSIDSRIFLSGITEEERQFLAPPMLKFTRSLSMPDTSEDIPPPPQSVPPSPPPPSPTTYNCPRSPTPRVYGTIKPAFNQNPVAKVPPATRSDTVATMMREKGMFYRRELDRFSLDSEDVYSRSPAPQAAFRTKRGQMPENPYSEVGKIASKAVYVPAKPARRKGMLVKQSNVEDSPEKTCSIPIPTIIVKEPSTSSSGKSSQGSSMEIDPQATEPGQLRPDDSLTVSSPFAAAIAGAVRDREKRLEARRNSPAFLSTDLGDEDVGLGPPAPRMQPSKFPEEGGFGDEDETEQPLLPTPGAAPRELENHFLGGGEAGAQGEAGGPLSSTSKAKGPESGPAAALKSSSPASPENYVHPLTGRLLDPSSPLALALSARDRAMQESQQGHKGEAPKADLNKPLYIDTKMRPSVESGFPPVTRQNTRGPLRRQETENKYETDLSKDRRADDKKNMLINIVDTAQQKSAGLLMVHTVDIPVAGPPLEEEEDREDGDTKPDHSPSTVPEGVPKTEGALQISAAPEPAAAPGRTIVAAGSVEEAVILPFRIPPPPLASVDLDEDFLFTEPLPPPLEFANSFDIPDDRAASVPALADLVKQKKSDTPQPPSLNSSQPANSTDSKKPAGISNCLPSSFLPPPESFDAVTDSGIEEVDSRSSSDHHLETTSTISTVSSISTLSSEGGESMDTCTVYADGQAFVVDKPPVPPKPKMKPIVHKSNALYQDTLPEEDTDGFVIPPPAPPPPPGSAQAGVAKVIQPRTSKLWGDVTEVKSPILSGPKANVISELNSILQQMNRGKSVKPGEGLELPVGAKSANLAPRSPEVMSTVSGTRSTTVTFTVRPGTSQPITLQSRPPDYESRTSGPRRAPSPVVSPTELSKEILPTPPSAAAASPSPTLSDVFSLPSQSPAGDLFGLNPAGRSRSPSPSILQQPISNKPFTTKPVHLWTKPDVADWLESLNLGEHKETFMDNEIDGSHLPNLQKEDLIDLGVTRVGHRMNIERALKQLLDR

Variants of: B1
Details: with shan1_rat Shank1, Q9WV48
Sequence of shan1_rat Shank1, Q9WV48 (Q9WV48 whole entry): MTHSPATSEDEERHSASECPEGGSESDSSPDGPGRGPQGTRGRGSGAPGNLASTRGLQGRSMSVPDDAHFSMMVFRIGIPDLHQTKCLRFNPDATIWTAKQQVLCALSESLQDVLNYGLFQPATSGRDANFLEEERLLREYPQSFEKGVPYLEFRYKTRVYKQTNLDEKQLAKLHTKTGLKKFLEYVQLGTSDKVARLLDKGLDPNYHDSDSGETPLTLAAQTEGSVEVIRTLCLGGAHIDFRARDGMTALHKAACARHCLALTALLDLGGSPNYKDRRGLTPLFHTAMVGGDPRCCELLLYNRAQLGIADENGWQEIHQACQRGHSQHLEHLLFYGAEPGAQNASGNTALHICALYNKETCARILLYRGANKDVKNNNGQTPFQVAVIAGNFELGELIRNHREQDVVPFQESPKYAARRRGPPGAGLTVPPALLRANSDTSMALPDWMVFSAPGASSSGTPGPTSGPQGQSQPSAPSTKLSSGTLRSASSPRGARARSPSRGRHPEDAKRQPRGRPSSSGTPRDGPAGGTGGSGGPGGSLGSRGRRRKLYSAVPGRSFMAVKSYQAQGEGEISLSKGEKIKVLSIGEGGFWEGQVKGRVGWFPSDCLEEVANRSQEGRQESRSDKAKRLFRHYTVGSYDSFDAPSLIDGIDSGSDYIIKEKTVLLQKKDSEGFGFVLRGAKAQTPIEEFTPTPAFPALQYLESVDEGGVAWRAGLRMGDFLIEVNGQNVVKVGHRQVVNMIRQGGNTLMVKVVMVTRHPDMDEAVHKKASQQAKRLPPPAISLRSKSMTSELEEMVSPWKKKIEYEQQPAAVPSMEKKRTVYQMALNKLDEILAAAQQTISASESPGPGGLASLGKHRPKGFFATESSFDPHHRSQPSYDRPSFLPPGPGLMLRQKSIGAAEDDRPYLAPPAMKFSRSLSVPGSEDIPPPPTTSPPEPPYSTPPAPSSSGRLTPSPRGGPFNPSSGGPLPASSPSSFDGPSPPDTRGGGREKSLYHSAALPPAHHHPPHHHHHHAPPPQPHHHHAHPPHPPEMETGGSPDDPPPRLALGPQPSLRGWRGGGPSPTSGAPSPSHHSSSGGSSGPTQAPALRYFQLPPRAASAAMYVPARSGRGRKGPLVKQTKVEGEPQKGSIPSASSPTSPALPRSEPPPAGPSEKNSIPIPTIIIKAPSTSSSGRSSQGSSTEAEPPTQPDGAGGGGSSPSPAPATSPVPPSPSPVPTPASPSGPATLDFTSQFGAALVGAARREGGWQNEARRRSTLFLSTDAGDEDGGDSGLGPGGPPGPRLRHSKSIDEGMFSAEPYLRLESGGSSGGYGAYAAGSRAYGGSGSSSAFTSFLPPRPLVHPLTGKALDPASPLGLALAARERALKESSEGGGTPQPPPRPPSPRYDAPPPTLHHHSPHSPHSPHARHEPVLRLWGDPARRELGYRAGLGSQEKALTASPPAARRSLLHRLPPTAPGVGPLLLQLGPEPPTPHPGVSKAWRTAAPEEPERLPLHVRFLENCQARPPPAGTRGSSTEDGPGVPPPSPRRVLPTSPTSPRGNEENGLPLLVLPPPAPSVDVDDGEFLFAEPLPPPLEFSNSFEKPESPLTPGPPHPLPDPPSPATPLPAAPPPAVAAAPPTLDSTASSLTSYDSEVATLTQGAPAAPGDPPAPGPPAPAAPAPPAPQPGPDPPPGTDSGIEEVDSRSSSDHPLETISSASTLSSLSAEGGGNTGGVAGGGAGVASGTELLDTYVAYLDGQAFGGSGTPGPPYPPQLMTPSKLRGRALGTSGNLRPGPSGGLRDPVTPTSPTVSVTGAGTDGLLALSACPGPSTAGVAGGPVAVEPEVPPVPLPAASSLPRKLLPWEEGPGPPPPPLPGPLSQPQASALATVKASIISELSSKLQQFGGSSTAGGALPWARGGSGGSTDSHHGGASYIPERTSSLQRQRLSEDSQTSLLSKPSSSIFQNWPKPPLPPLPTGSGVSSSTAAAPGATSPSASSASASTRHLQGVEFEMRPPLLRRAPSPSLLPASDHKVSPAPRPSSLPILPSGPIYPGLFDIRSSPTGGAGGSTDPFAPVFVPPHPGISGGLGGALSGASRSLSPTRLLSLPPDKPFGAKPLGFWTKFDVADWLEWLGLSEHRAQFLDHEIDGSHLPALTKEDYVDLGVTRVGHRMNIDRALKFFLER

| Variant | effect of a mutation on the interaction |
| --- | --- |
| L646A | disrupting interaction |

Variants of: B2
Details: with shan2_rat Shank2, Q9QX74

| Variant | effect of a mutation on the interaction |
| --- | --- |
| L646A | disrupting interaction |
